# From patent US10245299B2, “Autoassembling peptides for the treatment of pulmonary bulla” (3-D MATRIX, LTD., priority 2014, dated 2019)
# How the values were obtained:
# Format in all cases: physicochemical
# [1] = Rheological properties of pH adjusted peptide solutions and hydrogels; conditions: KLD12 1%, IEIK13 1%, PuraMatrix® 1% and 2.5%
# Method: Based on the visual observation of the effect of pH level on the properties of the peptide solutions, the effect on the rheological properties of the peptide solutions after adjusting their pH level to 3.4 (PuraMatrix® and KLD12) or 3.7 (IEIK13) was evaluated. If the pH levels of peptide solutions are higher than 3.5 (PuraMatrix® and KLD12) or 3.7 (IEIK13), the peptide solution began phase separation becoming cloudy. The rheological properties of PuraMatrix®, KLD12 and IEIK13 solutions were higher at pH 3.4. The results are shown in FIG. 2 for KLD12 1%, FIG. 3 for IEIK13 1%, and FIGS. 4-5 for PuraMatrix® 1% and 2.5%, respectively. Stress sweep tests were performed at 10 rad/s. Frequency sweep tests were performed at 1 Pa.
# Based on the results of the effect on the rheological properties of the peptide solutions after adjusting their pH level to 3.4 (PuraMatrix® and KLD12) or 3.7 (IEIK13), the effect on the rheological properties of the peptide solutions at various pH levels was evaluated. […] The rheological properties of peptides were evaluated at various concentrations using a rheometer (DHR-1, TA Instruments) with 20 mm plates. The results are shown in FIG. 6A for PuraMatrix® 2.5% solution and FIG. 6B for IEIK13 1.5% solution, respectively. Frequency sweep tests were performed from 1 rad/sec to 10 rad/sec at 1 Pa and the storage modulus at 1 rad/sec was selected for data.
# Based on the results of the effect on the rheological properties of the peptide solutions after adjusting their pH level, the effect on the rheological properties of the peptide hydrogels at various pH after DMEM treatment was evaluated and compared to the effect on the rheological properties of the peptide solutions at various pH before DMEM treatment. […] The results are shown in FIGS. 7A-7B for PuraMatrix® and FIGS. 8A-8B for IEIK (SEQ ID NO: 5), respectively. Frequency sweep tests were performed from 1 rad/sec to 10 rad/sec at 1 Pa and the storage modulus at 1 rad/sec was selected for data.
# [2] = pH and appearance of 2.5% peptide solutions after adding 0.1 N NaOH
# Method: To adjust the pH level of the peptide solutions by way of example, 0.1 N NaOH was added to 2 mL of 2.5% peptide solutions and their pH and appearance were measured.
# [3] = Appearance of 1.5% peptide solutions with various salts at room temperature; conditions: for Appearance: IEIK13 solution, room temperature
# Method: The effect of salt ionic strength level on the properties of peptide solutions was evaluated to identify optimized salt ionic strength levels for the peptides as described herein. Increasing the salt ionic strength level of PuraMatrix® and other peptides may generally improve its function and mechanical strength for various clinical applications. To adjust the salt ionic strength of the peptide solutions by way of example, various salt buffer solutions including NaCl, KCl, MgCl2, CaCl2 and DPBS (10×) were added to 2 mL of 1.5% peptide solutions.
# [4] = Gelation of peptide solutions after saline buffer treatment, time sweep; conditions: saline buffer (0.15 M of NaCl); IEIK13 1.5%, KLD12 1.5%, PuraMatrix® 2.5% solution
# Method: The effect of salt ionic strength level surrounding peptide solution on the properties of peptide solutions was evaluated to identify the possibility of peptide gelation when the peptide solution is placed into the environment where salt ionic strength level is high. […] Without pH effect, the effect of saline treatment on gelation of peptide solutions were evaluated. […] This is because IEIK13 is much more sensitive to salt ionic strength levels. Fast gelation of IEIK13 at the salt ionic strength level similar to body fluid isotonic salt level may generally improve its function and gelation speed for various clinical applications. The results are shown in FIG. 19 for IEIK13, KLD12 and PuraMatrix® solutions. Time sweep tests were performed at 1 rad/sec and at 1 Pa with 20 mm plates and 500 μm gap distance. […]
substance,measurement,setting,value
Ile-Glu-Ile-Lys-Ile-Glu-Ile-Lys-Ile-Glu-Ile-Lys-Ile [IEIK13],rheological properties of solutions at pH 3.4,[1],higher
same,Appearance,"[2]; 0.1N NaOH 0 μL/mL, conc. 2.5%, pH 1.8","Clear, thick gel"
same,Appearance,"[2]; 0.1N NaOH 50 μL/mL, conc. 2.38%, pH 2.1","Clear, thick gel"
same,Appearance,"[2]; 0.1N NaOH 100 μL/mL, conc. 2.27%, pH 2.2","Clear, thick gel"
same,Appearance,"[2]; 0.1N NaOH 150 μL/mL, conc. 2.17%, pH 2.7","Clear, thick gel,"
same,Appearance,"[2]; 0.1N NaOH 200 μL/mL, conc. 2.08%, pH 3.0","Clear, thick gel,"
same,Appearance,"[2]; 0.1N NaOH 250 μL/mL, conc. 2.0%, pH 3.3","Clear, thick gel,"
same,Appearance,"[2]; 0.1N NaOH 275 μL/mL, conc. 1.96%, pH 3.7","Clear, thick,"
same,Appearance,"[2]; 0.1N NaOH 300 μL/mL, conc. 1.92%, pH 4.0","Slightly cloudy,"
same,Appearance,"[2]; 0.1N NaOH 350 μL/mL, conc. 1.85%, pH 4.5","Cloudy, brittle gel"
same,Appearance,"[2]; 0.1N NaOH 400 μL/mL, conc. 1.79%, pH 5.4","Cloudy, phase-"
same,Peptide solution pH,"[2]; 0.1N NaOH added in 2.5% solution 0 μL/mL, conc. 2.5%",1.8
same,Peptide solution pH,"[2]; 0.1N NaOH added in 2.5% solution 50 μL/mL, conc. 2.38%",2.1
same,Peptide solution pH,"[2]; 0.1N NaOH added in 2.5% solution 100 μL/mL, conc. 2.27%",2.2
same,Peptide solution pH,"[2]; 0.1N NaOH added in 2.5% solution 150 μL/mL, conc. 2.17%",2.7
same,Peptide solution pH,"[2]; 0.1N NaOH added in 2.5% solution 200 μL/mL, conc. 2.08%",3.0
same,Peptide solution pH,"[2]; 0.1N NaOH added in 2.5% solution 250 μL/mL, conc. 2.0%",3.3
same,Peptide solution pH,"[2]; 0.1N NaOH added in 2.5% solution 275 μL/mL, conc. 1.96%",3.7
same,Peptide solution pH,"[2]; 0.1N NaOH added in 2.5% solution 300 μL/mL, conc. 1.92%",4.0
same,Peptide solution pH,"[2]; 0.1N NaOH added in 2.5% solution 350 μL/mL, conc. 1.85%",4.5
same,Peptide solution pH,"[2]; 0.1N NaOH added in 2.5% solution 400 μL/mL, conc. 1.79%",5.4
same,Appearance,[2]; pH 7.0,"Cloudy, phase-"
same,Appearance,"[3]; conc. 1.16%, KCl 0.045 M, ionic strength 0.045 M","Cloudy, phase-separated"
same,Appearance,"[3]; conc. 1.2%, KCl 0.04 M, ionic strength 0.04 M","Slightly cloudy, brittle"
same,Appearance,"[3]; conc. 1.2%, NaCl 0.04 M, ionic strength 0.04 M","Cloudy, phase-separated"
same,Appearance,"[3]; conc. 1.24%, KCl 0.035 M, ionic strength 0.035 M","Slightly cloudy, brittle gel"
same,Appearance,"[3]; conc. 1.24%, NaCl 0.035 M, ionic strength 0.035 M","Slightly cloudy, brittle gel"
same,Appearance,"[3]; conc. 1.27%, KCl 0.03 M, ionic strength 0.03 M","Clear, thick, stiffer gel"
same,Appearance,"[3]; conc. 1.27%, NaCl 0.03 M, ionic strength 0.03 M","Slightly cloudy, thick, stiffer gel"
same,Appearance,"[3]; conc. 1.31%, KCl 0.025 M, ionic strength 0.025 M","Clear, thick, stiffer gel"
same,Appearance,"[3]; conc. 1.31%, NaCl 0.025 M, ionic strength 0.025 M","Clear, thick, stiffer gel"
same,Appearance,"[3]; conc. 1.35%, KCl 0.02 M, ionic strength 0.02 M","Clear, thick, stiffer gel"
same,Appearance,"[3]; conc. 1.35%, NaCl 0.02 M, ionic strength 0.02 M","Clear, thick, stiffer gel"
same,Appearance,"[3]; conc. 1.36%, CaCl2 0.0183 M, ionic strength 0.055 M","Cloudy, phase-separated"
same,Appearance,"[3]; conc. 1.36%, MgCl2 0.0183 M, ionic strength 0.055 M","Cloudy, phase-separated"
same,Appearance,"[3]; conc. 1.37%, CaCl2 0.0167 M, ionic strength 0.05 M","Slightly cloudy, brittle gel"
same,Appearance,"[3]; conc. 1.37%, MgCl2 0.0167 M, ionic strength 0.05 M","Slightly cloudy, brittle gel"
same,Appearance,"[3]; conc. 1.39%, CaCl2 0.015 M, ionic strength 0.045 M","Slightly cloudy, thick, stiffer gel"
same,Appearance,"[3]; conc. 1.39%, KCl 0.015 M, ionic strength 0.015 M","Clear, thick, stiffer gel"
same,Appearance,"[3]; conc. 1.39%, MgCl2 0.015 M, ionic strength 0.045 M","Slightly cloudy, stiffer gel"
same,Appearance,"[3]; conc. 1.39%, NaCl 0.015 M, ionic strength 0.015 M","Clear, thick, stiffer gel"
same,Appearance,"[3]; conc. 1.40%, CaCl2 0.0133 M, ionic strength 0.04 M","Slightly cloudy, thick, stiffer gel"
same,Appearance,"[3]; conc. 1.40%, MgCl2 0.0133 M, ionic strength 0.04 M","Slightly cloudy, thick, stiffer gel"
same,Appearance,"[3]; conc. 1.41%, CaCl2 0.0117 M, ionic strength 0.035 M","Clear, thick, stiffer gel"
same,Appearance,"[3]; conc. 1.41%, MgCl2 0.0117 M, ionic strength 0.035 M","Clear, thick, stiffer gel"
same,Appearance,"[3]; conc. 1.43%, CaCl2 0.01 M, ionic strength 0.03 M","Clear, thick, stiffer gel"
same,Appearance,"[3]; conc. 1.43%, KCl 0.01 M, ionic strength 0.01 M","Clear, thick, stiffer gel"
same,Appearance,"[3]; conc. 1.43%, MgCl2 0.01 M, ionic strength 0.03 M","Clear, thick, stiffer gel"
same,Appearance,"[3]; conc. 1.43%, NaCl 0.01 M, ionic strength 0.01 M","Clear, thick, stiffer gel"
same,Appearance,"[3]; conc. 1.44%, CaCl2 0.0083 M, ionic strength 0.025 M","Clear, thick, stiffer gel"
same,Appearance,"[3]; conc. 1.44%, MgCl2 0.0083 M, ionic strength 0.025 M","Clear, thick, stiffer gel"
same,Appearance,"[3]; conc. 1.45%, CaCl2 0.0067 M, ionic strength 0.02 M","Clear, thick, stiffer gel"
same,Appearance,"[3]; conc. 1.45%, MgCl2 0.0067 M, ionic strength 0.02 M","Clear, thick, stiffer gel"
same,Appearance,"[3]; conc. 1.46%, CaCl2 0.005 M, ionic strength 0.015 M","Clear, thick, stiffer gel"
same,Appearance,"[3]; conc. 1.46%, KCl 0.005 M, ionic strength 0.005 M","Clear, thick, stiffer gel"
same,Appearance,"[3]; conc. 1.46%, MgCl2 0.005 M, ionic strength 0.015 M","Clear, thick, stiffer gel"
same,Appearance,"[3]; conc. 1.46%, NaCl 0.005 M, ionic strength 0.005 M","Clear, thick, stiffer gel"
same,Appearance,"[3]; conc. 1.5%, CaCl2 0 M, ionic strength 0 M","Clear, thick gel"
same,Appearance,"[3]; conc. 1.5%, KCl 0 M, ionic strength 0 M","Clear, thick gel"
same,Appearance,"[3]; conc. 1.5%, MgCl2 0 M, ionic strength 0 M","Clear, thick gel"
same,Appearance,"[3]; conc. 1.5%, NaCl 0 M, ionic strength 0 M","Clear, thick gel"
same,salt ionic strength increase that did not change the clear color of the solution (apparent stiffness increased),"[3]; depending on different salts, 1.5% peptide solutions",0.025˜0.035 M
same,gelation after saline buffer treatment,[4],fast gelation
